Measurements reported in PMC9974498.

Experiments:
Experiment in all cases: crystal structure
[1] = target: recombinant C-terminal StrepII-tagged SbtB from Synechocystis sp. PCC 6803 (ScSbtB), wild type (Synechocystis sp. PCC 6803)
[2] = target: recombinant C-terminal StrepII-tagged ScSbtB variant C105A+C110A (Synechocystis sp. PCC 6803)
[3] = target: recombinant C-terminal StrepII-tagged ScSbtB variant Δ104 (R-loop truncated from position 104 on) (Synechocystis sp. PCC 6803)

Substance “recombinant C-terminal StrepII-tagged SbtB from Synechocystis sp. PCC 6803 (ScSbtB), wild type (natural protein)” has a stoichiometry N [1] of 3.

With “recombinant C-terminal StrepII-tagged ScSbtB variant C105A+C110A (natural protein)” the stoichiometry N [2] was 3.

“recombinant C-terminal StrepII-tagged ScSbtB variant Δ104 (R-loop truncated from position 104 on) (domain or fragment)” showed a stoichiometry N [3] of 3.
